From patent US20200062804A1 (ADRX, published 2020)
Where “and” joins values, the source holds several entries; their conditions need not be identical. Equal entries are not always repeated. Non-standard residues stand in square brackets, D forms with d. No end group written: not given here. hArg = N=C(N)NCCCC[C@H](N)C(=O)O; Chg = N[C@H](C(=O)O)C1CCCCC1; NMeK = CN[C@@H](CCCCN)C(=O)O; Phg = N[C@H](C(=O)O)c1ccccc1

T1: Nat1 (LTIITLE) (also: TFA salt)
T1 peptide: LTIITLE


Biological target: T1, Nat1 (LTIITLE)
Assay: cell-based or functional assay

Binder	IC50, Thiofiavin T aggregation assay
[dK][dL][dK][dW][dQ][dW] [klkwqw]	7310 nM
Ac-IRIRRYR-NH2 [Ac-IRIRRYR-NH2]	69 nM
LTRILTH	7370 nM
ILRLYFR	8970 nM
[dK][dL][dK][dW][dA][dY] [klkway]	12600 nM
[dR][dM][dW][dR][dH][dH][dR] [rmwrhhr]	13200 nM
FFRLYLR	13400 nM
LTRILWH	16200 nM
FRLYIH	16400 nM
TFVFRHR	20300 nM
[dQ][dF][dH][dY][dK][dR][dR] [qfhylcrr]	23900 nM
[dR][dF][dH][dR][dH][dH][dR] [rfhrhhr]	30900 nM
IRIRAYR	23 nM
LYIRYLR	70 nM
IRIRRYE	32800 nM
[dH][dQ][dR][dR][dY][dQ][dR] [hqrryqr]	39100 nM
YTIQLWH	46000 nM
LRIKYHR	71 nM
[dK][dL][dK][dK][dL][dH] [klkklh]	71 nM
IAIRRYR	74 nM
[dK][dW][dR][dW][dY][dR][dR] [kwrwyrr]	75 nM
LRIRRYR	76 nM
LWIKYHR	76 nM

Binder	IC50, Thiofiavin T aggregation assay
IRIRRWR	76 nM
[dW][dW][dR][dW][dY][dR][dR] [wwrwyrr]	78 nM
IRIRRYR	27 nM
LRIYRVR	81 nM
IR[Chg]RRYR [Ile-Arg-Chg-Arg-Arg-Tyr-Arg]	81 nM
[dR][dF][dY][dR][dR][dH][dR] [rfyrrhr]	81 nM
WTIKLWH	84 nM
[dK][dY][dR][dW][dY][dR][dH] [kyrwyrh]	87 nM
[dF][dW][dR][dW][dH][dR] [fwrwhr]	88 nM
LRIRFFR	90 nM
LTIRYYK	93 nM
[dH][dL][dR][dI][dW][dR][dN] [hlriwrn]	97 nM
I[hArg]I[hArg]RYR [Ile-homoArg-Ile-homoArg-Arg-Tyr-Arg]	30 nM
YRLRYLR	99 nM
LFRYYQK	100 nM
LVIRYHR	101 nM
[dF][dF][dR][dF][dH][dR][dR] [ffrfhrr]	104 nM
RFYRYLR	107 nM
[dL][dW][dR][dR][dY][dH][dR] [lwrryhr]	108 nM
[dR][dI][dR][dW][dY][dW][dK] [rirwywk]	110 nM
[dY][dQ][dW][dR][dH][dW][dR] [yqwrhwr]	112 nM
[dR][dW][dY][dW][dH][dH][dR] [rwywhhr]	115 nM
[dS][dF][dW][dY][dK][dR][dR] [sfwykrr]	116 nM

Binder	IC50, Thiofiavin T aggregation assay
[dR][dF][dE][dF][dR][dH][dR] [rfefrhr]	117 nM
[dY][dQ][dY][dY][dY][dQ][dR] [yqyyyqr]	118 nM
IR[Phg]RRYR [Ile-Arg-Phg-Arg-Arg-Tyr-Arg]	124 nM
LRI[NMeK]YHR [LRI(N-Me)KYHR]	125 nM
[dR][dQ][dW][dY][dH][dW][dR] [rqwyhwr]	132 nM
[dH][dQ][dR][dY][dY][dW][dR] [hqryywr]	138 nM
[dH][dW][dR][dY][dH][dR][dR] [hwryhrr]	139 nM
IRIRHYRP	142 nM
ARIRRYR	144 nM
[dR][dW][dH][dW][dH][dW][dR] [rwhwhwr]	145 nM
LRIRYWK	36 nM
LRLRHYR	146 nM
[dF][dW][dR][dW][dH][dR][dR] [fwrwhrr]	147 nM and 164 nM
LYIKYHR	148 nM
YTRITYH	150 nM
[dF][dF][dR][dF][dH][dH][dR] [ffrfhhr]	151 nM
LRIYHHK	152 nM
IRLRRYR	153 nM
[dR][dW][dR][dW][dH][dH][dR] [rwrwhhr]	156 nM
[dH][dW][dR][dW][dY][dW][dK] [hwrwywk]	159 nM
IRIRRAR	37 nM
